The text below walks through data of doi:10.1101/2023.06.16.545277, “VAMP2 regulates phase separation of alpha-synuclein” (bioRxiv, 2023).

The target of this experiment is wild-type human full-length alpha-synuclein (human, UniProt P37840 1-140). In words: NMR titration; 1H-15N-BEST-TROSY chemical shift perturbation; 40 μM 15N-labelled aSYN fixed, peptide titrated; 20 mM phosphate buffer, pH 7.0, 10% 2H2O, 298 K. To be noted: both partners purified.

B1: JMD long peptide (peptide)
peptide: KLKRKYWWKNLKMM
notes: VAMP2, full length of the juxtamembrane (JM) domain, aa 83-96; also called native JMD long peptide; JM-domain of VAMP2, aa 83-96; source: synthetic peptide (custom synthesis, Proteogenix)
B1: the binding result is given as “binds”.
